Experimental data taken from patent publication US7863432B2, “Nucleic acid molecules encoding AKAP18 delta, a splice variant of a protein kinase A anchor protein” (Forschungsverbund Berlin e.V., priority 2002, dated 2011).

Target: T1, interaction between AKAP18δ and RIIα (Homo sapiens, UniProt P13861)
T1 construct: expressed in transfected cells; host or cells: HEK293
Assay: FRET measurement of AKAP18δ-CFP / RIIα-YFP interaction in co-transfected HEK293 cells
Assay type: cell-based
Settings: 100 μM
Experimental: The interaction of the expressed fusion proteins AKAP18δ-CFP and RIIα-YFP was measured in the HEK293 cells using the fluorescence resonance energy transfer (FRET) technology (schematic diagram in FIG. 3). The FRET signals result from an energy transfer from CFP to YFP, which is only possible when the two proteins are in close proximity to each other (<10 nm). Such close proximity of CFP and YFP is achieved only when AKAP186 directly binds the RIIα subunit. In this event, a FRET can be detected. […] A continuous decrease of the FRET signal during measurement indicates inhibition of the interaction between AKAP18δ and RIIα.
HEK293 cells (GBF, Brunswick) were cultured on polylysine-coated 30 mm cover glasses with 10% fetal calf serum (FCS) in Dulbecco's Minimal Eagle medium (DMEM) until a confluence of 40-60% was reached. […]
HEK293 cells were transiently co-transfected with the plasmids encoding RIIα-YFP and AKAP18δ-CFP. […] Fluorescence was excited at a wavelength of 425 nm for CFP and 488 nm for YFP. The emitted fluorescence was measured at a wavelength of 480/30 nm for CFP and 535/26 nm for YFP. The FRET of CFP to YFP was determined by excitation of CFP at a wavelength of 425 nm and measurement of the emission of YFP at a wavelength of 535/26 nm. Non-specific background fluorescence was determined in a region with no cells and subtracted. […]

T1 sequence (P13861 whole entry): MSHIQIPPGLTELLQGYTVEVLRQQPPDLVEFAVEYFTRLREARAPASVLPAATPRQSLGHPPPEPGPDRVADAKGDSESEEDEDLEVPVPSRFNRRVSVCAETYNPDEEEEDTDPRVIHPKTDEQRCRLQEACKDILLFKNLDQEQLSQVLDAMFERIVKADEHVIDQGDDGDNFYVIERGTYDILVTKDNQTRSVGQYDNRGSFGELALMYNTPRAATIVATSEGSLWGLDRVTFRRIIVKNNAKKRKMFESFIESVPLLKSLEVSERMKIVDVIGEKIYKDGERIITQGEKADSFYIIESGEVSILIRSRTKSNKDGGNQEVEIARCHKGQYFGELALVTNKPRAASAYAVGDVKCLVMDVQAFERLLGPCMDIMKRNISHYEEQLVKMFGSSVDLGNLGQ

mean value of the 535/480 ratio after addition of peptide (HEK293 cells, ratio >0.6 taken as positive FRET signal): about 0.35 | decrease of the 535/480 nm ratio (FRET signal) (within 80 min, HEK293 cells co-expressing AKAP18δ-CFP and RIIα-YFP, ratio before addition about 1.3): more than 50%
Substance: S-Ht31: membrane-permeable peptide; sequence of the RII binding domain of AKAP Ht31, coupled to a stearate residue on the N terminus
